Measured values published in article PMC3502708.

Columns and labels:
[1] = molecular target: T1, MORF PHD1/2 fingers (aa 211-329) (human), Q8WYB5; assay: other fluorescence titration
T1 chain: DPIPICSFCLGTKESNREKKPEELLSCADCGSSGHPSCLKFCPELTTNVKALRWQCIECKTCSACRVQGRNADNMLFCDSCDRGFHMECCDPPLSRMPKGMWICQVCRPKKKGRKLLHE

[2] = molecular target: MOZ PHD1/2 fingers (aa 207-318) (human), Q92794; assay: other fluorescence titration
MOZ PHD1/2 fingers (aa 207-318) (human), Q92794, sequence (Q92794 207-318): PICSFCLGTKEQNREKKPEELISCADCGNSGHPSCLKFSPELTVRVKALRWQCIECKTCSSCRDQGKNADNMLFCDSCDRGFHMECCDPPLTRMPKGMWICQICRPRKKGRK

Kd [1]: 4.3 µM
Kd [2]: 3.9 µM
Binder: ARTKQTARKSTG (modifications not checked) [unmodified histone H3 peptide (length not stated for the experiment)]
